Reference: US8399206B2, “Methods for diagnosis, prognosis and methods of treatment” (Nodality, Inc., priority 2008, dated 2013)

Columns and labels:
Type in all cases: cell-based, human
[1] = system: AML blasts; test: SCNP / phospho-flow modulated signaling assay, AML study No. 1 (PBMC at diagnosis, CR vs NR)
[2] = system: leukemic myeloblasts and healthy BMMb; test: SCNP in AML patients aged >60 years (ECOG E3999), FLT3-ITD vs FLT3-WT vs healthy BMMb (Example 12); conditions: FLT3-ITD blasts compared to BMMb
Source text: Modulated single cell network profiling (SCNP) was used to evaluate the activation state of intracellular signaling molecules (i.e. nodes), including phosphorylated (p)-Akt, p-Erk, p-S6, p-Stat5 and cleaved-PARP, at baseline and after treatment with specific modulators [including cytokines (such as IL-27) growth factors (such as FLT3 ligand) and drugs (such a cytosine arabinoside)] in 7 healthy bone marrow mononuclear blasts (BMMb) and leukemic myeloblasts, characterized for FLT3 receptor mutation status, from 44 AML patients (38 FLT-WT and 6 FLT3-ITD), aged>60 years (ECOG trial E3999). A total of 64 node-metrics were analyzed.

[3] = system: healthy bone marrow myeloblast (BMMC); test: FLT3L-induced signaling in healthy control BMMC myeloblasts (Example 9); conditions: BMMC samples
Source text: This example identifies intracellular signaling pathways associated with FLT3 ITD in two independent cohorts of diagnostic AML samples that serve as an improvement over current clinical tools in the identification of clinically meaningful altered FLT 3 and has implications for cohort selection in the development of FLT3 inhibitors. The two cohorts of data were further analyzed to investigate the differences in signaling between FLT-WT and FLT-ITD samples. The first cohort of data (“study 1”) comprised the 34 samples from University Health Network outlined in Table 16 and Table 19. The second cohort of data (“study 2”) comprised an 83 sample subset of MD Anderson Cancer Center data outlined in Table 16 (and Table 19). The 83 sample subset was selected based on known FLT3 mutation status. Both cohorts of data were used to investigate differences in FLT3 signaling between leukemic blasts and control data.
In order to further characterize wild-type FLT receptor signaling in AML, we compared FLT3L-induced signaling in the myeloblast population of control BMMC samples with FLT3L-induced signaling in the leukemic blast population of FLT3-WT AML samples.

[4] = Study No. 1 sensitivity analysis, CR samples
[5] = Study No. 1 sensitivity analysis, NR samples incl. CRp

B1: IL-27: interleukin-27 (protein, UniProt Q8NEV9 29-243; Q14213 21-229, looked up)
Interleukin-27 subunit alpha: FPRPPGRPQLSLQELRREFTVSLHLARKLLSEVRGQAHRFAESHLPGVNLYLLPLGEQLPDVSLTFQAWRRLSDPERLCFISTTLQPFHALLGGLGTQGRWTNMERMQLWAMRLDLRDLQRHLRFQVLAAGFNLPEEEEEEEEEEEEERKGLLPGALGSALQGPAQVSWPQLLSTYRLLHSLELVLSRAVRELLLLSKAGHSVWPLGFPTLSPQP
Interleukin-27 subunit beta: RKGPPAALTLPRVQCRASRYPIAVDCSWTLPPAPNSTSPVSFIATYRLGMAARGHSWPCLQQTPTSTSCTITDVQLFSMAPYVLNVTAVHPWGSSSSFVPFITEHIIKPDPPEGVRLSPLAERQLQVQWEPPGSWPFPEIFSLKYWIRYKRQGAARFHRVGPIEATSFILRAVRPRARYYVQVAAQDLTDYGELSDWSLPATATMSLGK
Mean Value of CRs, p-CREB Total Phospho [1, 4]: 1.25 | Mean Value of CRs, p-Stat1 Total Phospho [1, 4]: 0.39 | Mean Value of CRs, p-Stat3 Total Phospho [1, 4]: 1.01 | Mean Value of NRs, p-CREB Total Phospho [1, 5]: 2.36 | Mean Value of NRs, p-Stat1 Total Phospho [1, 5]: 0.81 | Mean Value of NRs, p-Stat3 Total Phospho [1, 5]: 1.85 | IL-27-induced levels of total p-Stat1 and p-Stat3 ([1]; staurosporine resistant samples vs other apoptosis categories): all greater in this apoptotic sub-category | IL-27 induced activation of the Jak/Stat pathway [2]: minimal IL-27 induced activation of the Jak/Stat pathway

B2: FLT-3L: fms-like tyrosine kinase receptor-3 ligand (protein, UniProt P49771 27-235, looked up)
Fms-related tyrosine kinase 3 …: TQDCSFQHSPISSDFAVKIRELSDYLLQDYPVTVASNLQDEELCGGLWRLVLAQRWMERLKTVAGSKMQGLLERVNTEIHFVTKCAFQPPPSCLRFVQTNISRLLQETSEQLVALKPWITRQNFSRCLELQCQPDSSTLPPPWSPRPLEATAPTAPQPPLLLLLLLPVGLLLLAAAWCLHWQRTRRRTPRPGEQVPPVPSPQDLLLVEH
Mean Value of CRs, p-Akt Fold [1, 4]: 0.10 | Mean Value of CRs, p-CREB Fold [1, 4]: 0.07 | Mean Value of CRs, p-CREB Total Phospho [1, 4]: 1.39 | Mean Value of CRs, p-Erk Fold [1, 4]: 0.08 | Mean Value of CRs, p-Plcγ2 Total Phospho [1, 4]: 1.81 | Mean Value of CRs, p-S6 Fold [1, 4]: 0.14 | Mean Value of CRs, p-Plcγ2 Fold ([1]; Study No. 1 sensitivity analysis, CR samples, negative = down regulation): −0.14 | Mean Value of NRs, p-Akt Fold [1, 5]: 0.65 | Mean Value of NRs, p-CREB Fold [1, 5]: 0.36 | Mean Value of NRs, p-CREB Total Phospho [1, 5]: 2.13 | Mean Value of NRs, p-Erk Fold [1, 5]: 0.33 | Mean Value of NRs, p-Plcγ2 Total Phospho [1, 5]: 2.78 | Mean Value of NRs, p-S6 Fold [1, 5]: 0.83 | Mean Value of NRs, p-Plcγ2 Fold ([1]; Study No. 1 sensitivity analysis, NR samples incl. CRp, negative = down regulation): −0.08 | FLT3L activation of p-Akt and p-S6 at later time point [3]: largely diminished by 15 minutes | range of FLT3L-induced S6 signaling [3]: narrow range of S6 signaling | FLT3L-induced p-Akt and p-S6 ([3]; early time points (4 minutes, 10 minutes)): increased levels of p-Akt and p-S6 | FLT3 ligand-induced pathway activation [2]: decreased FLT3 ligand-induced activation of P13K and Raf/Ras/Erk pathways
